Experimental data taken from patent publication US6988446B2, “Purified nitric oxide synthase” (priority 1996, dated 2006).
Where two headings read alike, the source gives them in different places. Marks after values point to notes of the source that are not given here. Non-standard residues stand in square brackets, D forms with d. No end group written: not given here. 2Thi = N[C@@H](Cc1cccs1)C(=O)O

Assays:
[1] = molecular target: T1, nNOS-II (Rattus norvegicus, UniProt P29476); test: Standard NOS enzyme assay (oxyhemoglobin to methemoglobin), peptides as substrates, initial velocity; format: biochemical; set-up: decrease of activity as substrate: concentration or dose not given beside the values; conditions: for relative activity as substrate for nNOS-II (in words): comparator (arginine or BK)
T1 sequence (P29476 whole entry): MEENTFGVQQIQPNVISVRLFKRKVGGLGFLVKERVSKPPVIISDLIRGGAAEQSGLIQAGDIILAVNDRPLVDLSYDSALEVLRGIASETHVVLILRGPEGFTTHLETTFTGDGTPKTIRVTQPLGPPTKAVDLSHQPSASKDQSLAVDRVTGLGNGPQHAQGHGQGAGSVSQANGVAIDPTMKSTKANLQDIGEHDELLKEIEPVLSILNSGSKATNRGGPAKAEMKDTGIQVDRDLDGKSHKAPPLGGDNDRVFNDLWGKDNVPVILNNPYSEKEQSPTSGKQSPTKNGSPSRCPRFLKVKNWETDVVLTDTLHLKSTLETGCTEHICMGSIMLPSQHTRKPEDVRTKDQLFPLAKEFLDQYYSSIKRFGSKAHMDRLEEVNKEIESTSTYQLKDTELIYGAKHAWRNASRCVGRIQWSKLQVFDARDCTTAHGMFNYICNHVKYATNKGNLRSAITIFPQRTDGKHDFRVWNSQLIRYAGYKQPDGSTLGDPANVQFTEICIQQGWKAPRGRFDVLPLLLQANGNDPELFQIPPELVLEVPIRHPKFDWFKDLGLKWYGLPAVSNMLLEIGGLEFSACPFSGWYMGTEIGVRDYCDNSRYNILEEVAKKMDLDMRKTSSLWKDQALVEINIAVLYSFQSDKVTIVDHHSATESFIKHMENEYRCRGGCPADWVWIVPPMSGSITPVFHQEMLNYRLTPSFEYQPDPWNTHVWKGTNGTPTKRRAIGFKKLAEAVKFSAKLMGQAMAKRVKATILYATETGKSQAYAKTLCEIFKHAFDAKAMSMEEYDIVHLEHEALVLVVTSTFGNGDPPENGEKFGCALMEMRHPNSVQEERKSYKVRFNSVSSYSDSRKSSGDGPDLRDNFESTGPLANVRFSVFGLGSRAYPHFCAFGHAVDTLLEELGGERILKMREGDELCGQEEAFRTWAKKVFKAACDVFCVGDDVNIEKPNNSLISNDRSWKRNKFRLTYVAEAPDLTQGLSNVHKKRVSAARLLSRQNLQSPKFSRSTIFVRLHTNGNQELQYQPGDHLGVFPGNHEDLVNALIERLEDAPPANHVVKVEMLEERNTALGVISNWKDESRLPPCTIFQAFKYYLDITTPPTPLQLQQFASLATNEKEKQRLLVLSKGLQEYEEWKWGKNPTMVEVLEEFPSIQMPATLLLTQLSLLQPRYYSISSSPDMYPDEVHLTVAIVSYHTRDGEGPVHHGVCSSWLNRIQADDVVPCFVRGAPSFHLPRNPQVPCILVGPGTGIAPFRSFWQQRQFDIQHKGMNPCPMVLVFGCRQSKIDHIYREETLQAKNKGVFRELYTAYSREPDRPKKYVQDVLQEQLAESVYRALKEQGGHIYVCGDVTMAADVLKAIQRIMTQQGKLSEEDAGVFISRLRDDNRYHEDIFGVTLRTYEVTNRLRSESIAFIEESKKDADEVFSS
Protocol: (§1) NOS Activity Assay: NOS activity was determined spectrophotometrically by the rapid and quantitative oxidation of oxyhemoglobin to methemoglobin (Feelish et al., Eur. J. Pharmacol. 139:19-30 (1987); Olken et al., Biochem. Biophys. Res. Commun. 177:828-833 (1991)).
(§2) Thus, reaction mixtures for NOS assays containing 50 mM Tris-HCl buffer (pH 7.5), were optimized to contain 4 μM oxyhemoglobin, 100 μM NADPH, 1 mM CaCl2, 10 μM FAD, 10 μM FMN, 20 μM BH4, 150 μM DTT, 100 μM BK or L-arginine and 0.1-3 μg enzyme in a final volume of 0.5 mL.
(§3) Thus, calmodulin (10 μg/mL) was added to the reaction mixtures when L-arginine was used as substrate.
(§4) NOS activity assay. NOS activity was determined spectrophotometrically by the rapid and quantitative oxidation of oxyhemoglobin to methemoglobin (10,11). Optimized reaction mixtures for NOS assays contained 50 mM Tris-HCl buffer (pH 7.5), and were optimized to contain 4 μM oxyhemoglobin, 100 μM NADPH, 1 mM CaCl2, 10 μM FAD, 10 μM FMN, 20 μM BH. 150 μM DTT, 100 μM BK or L-arginine and 0.1-3 μg enzyme in a final volume of 0.5 ml. Calmodulin (10 μg/ml) was added to the reaction mixtures when L-arginine was used as substrate.

[2] = molecular target: T1, nNOS-II; test: Kinetic determinations (KM, Vmax, Ki) with the standard enzyme assay; format: biochemical
Protocol: as §1, §2, §3
Kinetic data were calculated by fitting experimental data to the EZ-FIT program (Perrella, Anal. Biochem. 174.437-447 (1988)).
as §4
Kinetic determinations. Kinetic experiments were conducted using the standard enzyme assay described above. […] Kinetic data were calculated by fitting experimental data to EZ-FIT program (12).

[3] = molecular target: nNOS (Rattus norvegicus, UniProt P29476); conditions: cited from earlier work
[4] = Table 3, substrate 100 μM (poly-arginine 5 μg/ml), purified nNOS-II 0.2 μg, activity for arginine = 100%, means of three measurements
[5] = substrate 100 μM (poly-arginine 5 μg/ml), purified nNOS-II 0.2 μg, activity for arginine = 100%, means of three measurements

In the case of “Arg-Pro-Pro-Gly-Phe-Ser-Pro-Phe (APPGFSPF; rat) [Des-Arg^9-BK]”, the “Relative activity (%)” value [1, 4] is reported as 180%, the “Relative Activity (%)” value [1, 5] is reported as 180% and the “relative activity as substrate for nNOS-II (in words)” value (from here on “relative activity as substrate”) ([1]; text of Example 2) is reported as “about one-fold higher than that of arginine”.
With “Arg-Pro-Pro-Gly-Phe (RPPGF; rat) [BK fragment 1-5]” the “Relative activity (%)” value [1, 4] was 61%, the “Relative Activity (%)” value [1, 5] was 61% and the “activity of that for BK” value ([1]; text of Example 2, relative to BK) was “about 50%”.
For “[N-adamantaneacetyl-D-Arg^0, Hyp^3, Thi^5,8, D-Phe^7]-BK”, the Ki ([2]; nNOS-II with BK as substrate, competitive inhibition, read-out: apparent Ki) was 2500 nM.
For KPPGFSPFR [[Lys^1]-BK], the “Relative activity (%)” value [1, 4] was 113% and the “Relative Activity (%)” value [1, 5] was 113%.
With “Lys-Arg-Pro-Pro-Gly-Phe-Ser-Pro-Phe-Arg [Lys-BK]” the “Relative Activity (%)” value [1] was 116%, the “Relative activity (%)” value [1] was 116% and the “relative activity as substrate” value ([1]; text of Example 2) was “almost the same activity”.
With “[Thi^5,8, D-Phe^7]-BK (RPPG[2Thi]S[dF][2Thi]R)” the “effect on nNOS-II activity” value ([2]; concentration range of 0.5-100 μM) was “no effect” and the “effect on nNOS-II activity” value ([2]; concentration range of 0.5-100 mM) was “no effect”.
In the case of PPGFSP [BK fragment 2-7], the “Relative activity (%)” value [1, 4] is reported as 0% and the “Relative Activity (%)” value [1, 5] is reported as 0%.
In the case of RPPGFSPFR [BK], the “Relative activity (%)” value [1, 4] is reported as 125% and the “Relative Activity (%)” value [1, 5] is reported as 125%.
For RPPGFSP [BK fragment 1-7], the “Relative activity (%)” value [1, 4] was 80%, the “Relative Activity (%)” value [1, 5] was 80% and the “decrease of activity as substrate” value ([1]; text of Example 2, comparator not stated) was 30%.
In the case of ISRPPGFSPFR [Ile-Ser-BK], the “Relative activity (%)” value [1, 4] is reported as 110% and the “Relative Activity (%)” value [1, 5] is reported as 110%.
In the case of PPGFSPFR [Des-Arg^1-BK], the “Relative activity (%)” value [1, 4] is reported as 94%, the “Relative Activity (%)” value [1, 5] is reported as 94% and the “relative activity as substrate” value ([1]; text of Example 2) is reported as “activity similar to that of arginine”.
For “Met-Lys-Arg-Pro-Pro-Gly-Phe-Ser-Pro-Phe-Arg [Met-Lys-BK]”, the “Relative Activity (%)” value [1] was 0%, the “Relative activity (%)” value [1] was 0% and the “relative activity as substrate” value ([1]; text of Example 2) was “no activity at all”.
In the case of Poly-arginine, the “Relative Activity (%)” value [1] is reported as 30%, the “Relative activity (%)” value [1] is reported as 30% and the “activity for nNOS-II comparing to that of arginine” value [1] is reported as 30%.
In the case of N=C(N)NCCC[C@H](N)C(=O)O [L-arginine], the “apparent Vmax” value ([2]; substrate of nNOS-II, calmodulin added when L-arginine is substrate) is reported as 0.85 μmol/min/mg protein, the “Relative Activity (%)” value [1] is reported as 100^c % and the “Relative activity (%)” value [1] is reported as 100^c %. The Km ([3]; previously described nNOS (Bredt et al.), read-out: reported KM for nNOS) was 2 µM and the “apparent Vmax for nNOS” value ([3]; previously described nNOS, L-arginine as substrate) was 0.96 μmol/min/mg protein.
